{"source": "paper PMC11992055", "about": "“Identification of RING E3 pseudoligases in the TRIM protein family” (Nature Communications, 2025)", "proteins": {"B1": {"name": "TRIM6 RING domain (residues 1-87), wild type (domain or fragment, human, UniProt Q9C030 1-87, looked up)", "chain": "MTSPVLVDIREEVTCPICLELLTEPLSIDCGHSFCQACITPNGRESVIGQEGERSCPVCQTSYQPGNLRPNRHLANIVRRLREVVLG", "notes": "TRIM6, human, RING domain, residues 1-87; Forms dimers in solution by SEC-MALLS; The His6 tag is HRV 3C cleavable; also called TRIM6 RING WT; source: E. coli BL21, purified (Ni-NTA, size-exclusion chromatography)"}, "B2": {"name": "TRIM22 RING domain (residues 1-87), wild type (domain or fragment, human, UniProt Q8IYM9 1-87, looked up)", "chain": "MDFSVKVDIEKEVTCPICLELLTEPLSLDCGHSFCQACITAKIKESVIISRGESSCPVCQTRFQPGNLRPNRHLANIVERVKEVKMS", "notes": "TRIM22, human, RING domain, residues 1-87; Monomer-dimer equilibrium by SEC-MALLS; The His6 tag is HRV 3C cleavable; also called TRIM22 RING WT; source: E. coli BL21, purified (Ni-NTA, size-exclusion chromatography)"}}, "target": "the molecule itself", "assay": "SEC-MALS; SEC-MALLS; Superdex 200 Increase 10/300; 120 µl sample at 1–6 mg/ml; 50 mM HEPES pH 7.5, 150 mM NaCl, 0.5 mM TCEP, 3 mM NaN3; 0.5 ml/min"}
{"protein": "B1", "values": [{"measurement": "stoichiometry N", "result": 2}]}
{"protein": "B2", "values": [{"measurement": "stoichiometry N", "result": 2}]}
